Laboratory results reported in paper PMC2782394.

T1: ROS3 (Arabidopsis thaliana, UniProt Q9FGT1 1-748)
T1 sequence: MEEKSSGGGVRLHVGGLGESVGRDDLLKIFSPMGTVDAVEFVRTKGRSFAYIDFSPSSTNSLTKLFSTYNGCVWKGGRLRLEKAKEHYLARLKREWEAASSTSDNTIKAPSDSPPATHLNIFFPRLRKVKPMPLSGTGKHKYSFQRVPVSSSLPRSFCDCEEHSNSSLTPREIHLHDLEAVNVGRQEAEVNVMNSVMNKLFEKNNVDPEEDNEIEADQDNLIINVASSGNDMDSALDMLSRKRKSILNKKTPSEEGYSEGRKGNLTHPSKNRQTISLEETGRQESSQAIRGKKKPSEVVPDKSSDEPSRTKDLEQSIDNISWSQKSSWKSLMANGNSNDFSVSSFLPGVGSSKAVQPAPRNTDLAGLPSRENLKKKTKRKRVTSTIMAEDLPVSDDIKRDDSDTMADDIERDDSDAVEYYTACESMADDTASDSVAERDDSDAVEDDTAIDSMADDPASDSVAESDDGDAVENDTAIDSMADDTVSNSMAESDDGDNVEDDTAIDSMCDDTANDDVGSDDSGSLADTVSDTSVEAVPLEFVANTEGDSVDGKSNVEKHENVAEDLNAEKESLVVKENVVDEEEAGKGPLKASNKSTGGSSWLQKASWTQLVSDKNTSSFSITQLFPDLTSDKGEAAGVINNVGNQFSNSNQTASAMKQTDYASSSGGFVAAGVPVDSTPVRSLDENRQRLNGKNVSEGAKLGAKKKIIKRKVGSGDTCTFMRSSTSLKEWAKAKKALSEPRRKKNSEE

B1: RNA (c) 25-nt (ssRNA)
RNA: GGGAGUCCGGAGACGUCGGCGGGGG
B2: RNA (d) 25-nt (ssRNA)
RNA: UCGGGAGGGAAGCGGAUGGGGGCCG

Biological target: T1, ROS3
Assay: EMSA

Row | Binder | binding result
1 | B1 | binds
2 | B2 | binds
